From the supplement of paper PMC9112550, “Optimization of the antimicrobial peptide Bac7 by deep mutational scanning” (BMC Biology, 2022)

Test system: Escherichia coli TOP10
Assay: shrunken log2 fold change of peptide-encoding DNA abundance (4.5 h post-induction vs induction); higher = less antimicrobial activity (less host growth inhibition)
Details: time post-induction: 4.5 h; library: site-saturation at positions 5, 18, 19, 20
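Further: peptides expressed intracellularly from a pBAD plasmid library in pooled LB shake-flask culture, induced with 0.3% L-arabinose, DNA abundance read by NGS, three biological replicates, DESeq2 with apeglm shrinkage.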

Sequence: RRIRQRPPRLPRPRPRPFMYPRP
- shrunken log2 fold change: 0.000979

Sequence: RRIRRRPPRLPRPRPRPLDNPRP
- shrunken log2 fold change: -0.0599

Sequence: RRIRGRPPRLPRPRPRPACIPRP
- shrunken log2 fold change: 0.666

Sequence: RRIRSRPPRLPRPRPRPVGNPRP
- shrunken log2 fold change: -0.0399

Sequence: RRIRDRPPRLPRPRPRPAHVPRP
- shrunken log2 fold change: -0.0599

Sequence: RRIRLRPPRLPRPRPRPSNKPRP
- shrunken log2 fold change: -0.646

Sequence: RRIRERPPRLPRPRPRPFMSPRP
- shrunken log2 fold change: -0.0685

Sequence: RRIRSRPPRLPRPRPRPAAPPRP
- shrunken log2 fold change: 0.66

Sequence: RRIRDRPPRLPRPRPRPGRPPRP
- shrunken log2 fold change: 0.136

Sequence: RRIRIRPPRLPRPRPRPMFEPRP
- shrunken log2 fold change: -0.0768

Sequence: RRIRCRPPRLPRPRPRPDKFPRP
- shrunken log2 fold change: -0.296

Sequence: RRIRWRPPRLPRPRPRPQACPRP
- shrunken log2 fold change: 0.145

Sequence: RRIRYRPPRLPRPRPRPHQQPRP
- shrunken log2 fold change: -0.0439

Sequence: RRIRVRPPRLPRPRPRPAGLPRP
- shrunken log2 fold change: 0.192

Sequence: RRIRERPPRLPRPRPRPESHPRP
- shrunken log2 fold change: -0.0157

Sequence: RRIRRRPPRLPRPRPRPALTPRP
- shrunken log2 fold change: 0.258

Sequence: RRIRGRPPRLPRPRPRPPISPRP
- shrunken log2 fold change: 0.163

Sequence: RRIRNRPPRLPRPRPRPFSAPRP
- shrunken log2 fold change: -0.264

Sequence: RRIRYRPPRLPRPRPRPPMNPRP
- shrunken log2 fold change: -0.728

Sequence: RRIRVRPPRLPRPRPRPVSVPRP
- shrunken log2 fold change: 0.0195

Sequence: RRIRSRPPRLPRPRPRPRCNPRP
- shrunken log2 fold change: 0.124

Sequence: RRIRPRPPRLPRPRPRPRMYPRP
- shrunken log2 fold change: -0.128

Sequence: RRIRKRPPRLPRPRPRPVYRPRP
- shrunken log2 fold change: -0.667

Sequence: RRIRNRPPRLPRPRPRPQYTPRP
- shrunken log2 fold change: -0.737

Sequence: RRIRQRPPRLPRPRPRPDWEPRP
- shrunken log2 fold change: 0.0238

Sequence: RRIRQRPPRLPRPRPRPIAVPRP
- shrunken log2 fold change: -0.038

Sequence: RRIRNRPPRLPRPRPRPCAKPRP
- shrunken log2 fold change: -0.0333

Sequence: RRIRQRPPRLPRPRPRPIQLPRP
- shrunken log2 fold change: -0.333

Sequence: RRIRGRPPRLPRPRPRPYQFPRP
- shrunken log2 fold change: -0.297

Sequence: RRIRYRPPRLPRPRPRPGNMPRP
- shrunken log2 fold change: -0.55

Sequence: RRIRERPPRLPRPRPRPTYDPRP
- shrunken log2 fold change: -0.528

Sequence: RRIRPRPPRLPRPRPRPLVWPRP
- shrunken log2 fold change: 0.412

Sequence: RRIRNRPPRLPRPRPRPIWHPRP
- shrunken log2 fold change: -0.356

Sequence: RRIRYRPPRLPRPRPRPYNIPRP
- shrunken log2 fold change: -0.426

Sequence: RRIRCRPPRLPRPRPRPTDNPRP
- shrunken log2 fold change: -0.58

Sequence: RRIRFRPPRLPRPRPRPSWKPRP
- shrunken log2 fold change: 0.206

Sequence: RRIRFRPPRLPRPRPRPGNDPRP
- shrunken log2 fold change: -0.512

Sequence: RRIRRRPPRLPRPRPRPRCEPRP
- shrunken log2 fold change: 0.342

Sequence: RRIRHRPPRLPRPRPRPAPQPRP
- shrunken log2 fold change: 0.588

Sequence: RRIRDRPPRLPRPRPRPCYIPRP
- shrunken log2 fold change: 0.0176

Sequence: RRIRVRPPRLPRPRPRPFSLPRP
- shrunken log2 fold change: -0.348

Sequence: RRIRPRPPRLPRPRPRPWLRPRP
- shrunken log2 fold change: 0.421

Sequence: RRIRIRPPRLPRPRPRPTEFPRP
- shrunken log2 fold change: -0.408

Sequence: RRIRPRPPRLPRPRPRPAIVPRP
- shrunken log2 fold change: 0.119

Sequence: RRIRERPPRLPRPRPRPNYLPRP
- shrunken log2 fold change: -0.0974

Sequence: RRIRFRPPRLPRPRPRPMGGPRP
- shrunken log2 fold change: -0.166

Sequence: RRIRCRPPRLPRPRPRPCYTPRP
- shrunken log2 fold change: -0.397

Sequence: RRIRIRPPRLPRPRPRPRNRPRP
- shrunken log2 fold change: -0.125

Sequence: RRIRERPPRLPRPRPRPDSFPRP
- shrunken log2 fold change: 0.0952

Sequence: RRIRMRPPRLPRPRPRPRIMPRP
- shrunken log2 fold change: 0.049

Sequence: RRIRIRPPRLPRPRPRPMRPPRP
- shrunken log2 fold change: 0.194

Sequence: RRIRHRPPRLPRPRPRPRIYPRP
- shrunken log2 fold change: -0.584

Sequence: RRIRSRPPRLPRPRPRPMLIPRP
- shrunken log2 fold change: -0.131

Sequence: RRIRWRPPRLPRPRPRPVGFPRP
- shrunken log2 fold change: 0.558

Sequence: RRIRYRPPRLPRPRPRPEPWPRP
- shrunken log2 fold change: 0.00405

Sequence: RRIRQRPPRLPRPRPRPGDPPRP
- shrunken log2 fold change: 0.0572

Sequence: RRIRERPPRLPRPRPRPEFLPRP
- shrunken log2 fold change: 0.26

Sequence: RRIRMRPPRLPRPRPRPFAAPRP
- shrunken log2 fold change: 0.789

Sequence: RRIRYRPPRLPRPRPRPPQYPRP
- shrunken log2 fold change: -0.795

Sequence: RRIRWRPPRLPRPRPRPYRMPRP
- shrunken log2 fold change: 0.0292

Sequence: RRIRKRPPRLPRPRPRPVHTPRP
- shrunken log2 fold change: 0.00666

Sequence: RRIRHRPPRLPRPRPRPVDKPRP
- shrunken log2 fold change: -0.308

Sequence: RRIRTRPPRLPRPRPRPFHHPRP
- shrunken log2 fold change: -0.775

Sequence: RRIRSRPPRLPRPRPRPQSCPRP
- shrunken log2 fold change: -0.00487

Sequence: RRIRGRPPRLPRPRPRPDQKPRP
- shrunken log2 fold change: 0.0127

Sequence: RRIRDRPPRLPRPRPRPMRPPRP
- shrunken log2 fold change: 0.804

Sequence: RRIRSRPPRLPRPRPRPARRPRP
- shrunken log2 fold change: 0.0588

Sequence: RRIRGRPPRLPRPRPRPTQMPRP
- shrunken log2 fold change: 0.924

Sequence: RRIRSRPPRLPRPRPRPWDWPRP
- shrunken log2 fold change: 0.676

Sequence: RRIRLRPPRLPRPRPRPLANPRP
- shrunken log2 fold change: -0.00613

Sequence: RRIRHRPPRLPRPRPRPAHFPRP
- shrunken log2 fold change: 0.165

Sequence: RRIRIRPPRLPRPRPRPWHEPRP
- shrunken log2 fold change: 0.0173

Sequence: RRIRHRPPRLPRPRPRPHWSPRP
- shrunken log2 fold change: -0.205

Sequence: RRIRGRPPRLPRPRPRPFCCPRP
- shrunken log2 fold change: 0.522

Sequence: RRIRGRPPRLPRPRPRPVYIPRP
- shrunken log2 fold change: -0.194

Sequence: RRIRSRPPRLPRPRPRPPLHPRP
- shrunken log2 fold change: -0.00448

Sequence: RRIRNRPPRLPRPRPRPGKFPRP
- shrunken log2 fold change: -0.034

Sequence: RRIRYRPPRLPRPRPRPAHEPRP
- shrunken log2 fold change: 0.241

Sequence: RRIRSRPPRLPRPRPRPCLAPRP
- shrunken log2 fold change: 0.0253

Sequence: RRIRMRPPRLPRPRPRPDHRPRP
- shrunken log2 fold change: -0.279

Sequence: RRIRRRPPRLPRPRPRPIYWPRP
- shrunken log2 fold change: 0.08

Sequence: RRIRYRPPRLPRPRPRPWPSPRP
- shrunken log2 fold change: -0.00149

Sequence: RRIRDRPPRLPRPRPRPKAQPRP
- shrunken log2 fold change: -0.1

Sequence: RRIRPRPPRLPRPRPRPSRDPRP
- shrunken log2 fold change: -0.109

Sequence: RRIRVRPPRLPRPRPRPQLMPRP
- shrunken log2 fold change: -0.224

Sequence: RRIRRRPPRLPRPRPRPVLKPRP
- shrunken log2 fold change: 0.267

Sequence: RRIRIRPPRLPRPRPRPQHRPRP
- shrunken log2 fold change: -0.116

Sequence: RRIRPRPPRLPRPRPRPANKPRP
- shrunken log2 fold change: -0.267

Sequence: RRIRSRPPRLPRPRPRPNKSPRP
- shrunken log2 fold change: -0.266

Sequence: RRIRIRPPRLPRPRPRPTYQPRP
- shrunken log2 fold change: -0.715

Sequence: RRIRIRPPRLPRPRPRPHGTPRP
- shrunken log2 fold change: -0.236

Sequence: RRIRIRPPRLPRPRPRPEIYPRP
- shrunken log2 fold change: -4.67e-05

Sequence: RRIRERPPRLPRPRPRPAMDPRP
- shrunken log2 fold change: 0.283

Sequence: RRIRWRPPRLPRPRPRPAGDPRP
- shrunken log2 fold change: 0.363

Sequence: RRIRWRPPRLPRPRPRPWGKPRP
- shrunken log2 fold change: 0.0784

Sequence: RRIRARPPRLPRPRPRPASEPRP
- shrunken log2 fold change: 0.285

Sequence: RRIRVRPPRLPRPRPRPSKVPRP
- shrunken log2 fold change: -0.693

Sequence: RRIRIRPPRLPRPRPRPLHLPRP
- shrunken log2 fold change: -1.08

Sequence: RRIRLRPPRLPRPRPRPLHLPRP
- shrunken log2 fold change: -0.21

Sequence: RRIRQRPPRLPRPRPRPQNTPRP
- shrunken log2 fold change: -0.666

Sequence: RRIRFRPPRLPRPRPRPSSKPRP
- shrunken log2 fold change: -0.32

Sequence: RRIRSRPPRLPRPRPRPECMPRP
- shrunken log2 fold change: 0.00574

Sequence: RRIRFRPPRLPRPRPRPMNYPRP
- shrunken log2 fold change: -0.582

Sequence: RRIRCRPPRLPRPRPRPCDWPRP
- shrunken log2 fold change: 0.116

Sequence: RRIRWRPPRLPRPRPRPMENPRP
- shrunken log2 fold change: 0.0913

Sequence: RRIRLRPPRLPRPRPRPGKAPRP
- shrunken log2 fold change: 0.0651

Sequence: RRIRRRPPRLPRPRPRPHCPPRP
- shrunken log2 fold change: 0.0475

Sequence: RRIRERPPRLPRPRPRPQNCPRP
- shrunken log2 fold change: -0.0646

Sequence: RRIRFRPPRLPRPRPRPWATPRP
- shrunken log2 fold change: 0.0109
